In US20190016800A1:

Target: cynomolgus monkey LAG-3 protein (Cat#LA3-C52A0, Acrobiosystems) (cynomolgus monkey)
Test: BLI ForteBio Octet RED 96, biotin labeled antibody on streptavidin sensor, antigen 3.125-100 nM, 1:1 fit

Kd: 2.22 nM
Substance: LAG3.5 (BMS-986016, developed by Bristol-Myers Squibb) (antibody)
